In paper PMC3294146:

Columns and labels:
[1] = target: Co-hArgI-C^PEG-20K (hArgI-C conjugated at the N-terminal Cys to 20 KDa PEG-maleimide) (human); test: SEC
[2] = target: human Arginase I with an engineered N-terminal Cys residue (hArgI-C), not PEGylated (human); test: SEC

Substance | stoichiometry N [1] | percent dimeric [2] [%] | percent monomeric [2] [%]
Co-hArgI-C^PEG-20K (hArgI-C conjugated at the N-terminal Cys to 20 KDa PEG-maleimide) (enzyme) | 3 | – | –
human Arginase I with an engineered N-terminal Cys residue (hArgI-C), not PEGylated (enzyme) | – | 10 | 90
